Test results as given in patent US5969094A, “Anti-paramyxovirus screening method and vaccine” (Emory University, priority 1996, dated 1999).
Read-outs that look alike come from different tables or passages of the source.

What was measured:
[1] = tested on: PI3 virus; test: Inhibition of plaque formation on Vero cells (viral entry), PI3; format: cell-based, human parainfluenza type 3 virus; settings: 100 μM peptide with virus 1 h at 37° C.; 10^5 dilution of the PI3 virus stock; overlay without peptide
Experimental: Inhibition of plaque formation. A series of 2-fold dilutions of F peptides together with appropriately diluted PI2 or PI3 virus were added to monolayers of Vero cells. After 1 h incubation at 37° C., the inoculum was removed and overlaid with 2% white agar mixed at 1:1 ratio with 2XDMEM containing 2% FBS. Three days after overlying, red agar mixed at a 1:1 ratio with 2XDMEM containing 2% FBS was overlaid to stain the cells. Plaque numbers were counted one day after neutral red staining and recorded. The Reed-Muench method of estimating 50% endpoint [Welkos, S. et al., (1994) Methods in Enzymology. 235:29-39] was used to calculate the F peptide 50% effective concentration (EC50) value.
F peptides inhibit viral spread. To determine whether the F peptide interferes with the viral entry process, a plaque assay was performed by inoculating cells with virus and peptide together at 37° C. for 1 h, and then overlaying with agar without the addition of peptide. At 10^4 dilution of the PI2 virus stock, 80 μM of the 2F1B34 peptide (SEQ ID NO:21) caused an 80% reduction in number of plaques. Similarly, at 10^5 dilution of the PI3 virus stock, 100 μM of the 3F1B35 peptide (SEQ ID NO:23) caused a 70% reduction in number of plaques. Furthermore, the reduction in the number of viral plaques was correlated with increasing concentration of peptide incubated with the virus. […]

[2] = molecular target: PI3F + PI3HN (Human parainfluenza 3 virus, UniProt P06828)
[3] = tested on: PI3 virus; format: cell-based, human parainfluenza type 3 virus; settings: for syncytium formation / inhibition of cell fusion in PI3 infected HeLa-T4 cells (in words): incubated with peptide, concentration not given; for inhibition of PI3 virus-induced cell fusion: 24 h post infection
[4] = tested on: PI2 virus; format: cell-based, parainfluenza virus type 2
[5] = molecular target: T1, PI2F + PI2HN (Human parainfluenza 2 virus, UniProt P25467); format: cell-based, parainfluenza virus type 2
T1 construct: expressed in transfected cells; host or cells: HeLa-T4 cells infected with vTF7.3
T1 sequence (P25467 107-551 limits assumed): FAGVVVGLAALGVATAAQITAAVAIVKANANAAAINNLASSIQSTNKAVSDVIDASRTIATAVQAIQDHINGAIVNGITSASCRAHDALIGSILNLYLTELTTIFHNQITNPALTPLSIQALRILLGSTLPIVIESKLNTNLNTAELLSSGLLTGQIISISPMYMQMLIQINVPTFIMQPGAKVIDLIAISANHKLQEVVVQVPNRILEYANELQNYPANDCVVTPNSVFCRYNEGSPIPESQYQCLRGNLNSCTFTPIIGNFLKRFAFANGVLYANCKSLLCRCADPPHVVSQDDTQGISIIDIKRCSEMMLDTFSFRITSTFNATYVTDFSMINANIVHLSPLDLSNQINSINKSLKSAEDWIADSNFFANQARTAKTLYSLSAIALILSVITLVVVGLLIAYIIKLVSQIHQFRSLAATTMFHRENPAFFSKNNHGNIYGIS
T1 sequence (P25467 24-106 partner limits assumed): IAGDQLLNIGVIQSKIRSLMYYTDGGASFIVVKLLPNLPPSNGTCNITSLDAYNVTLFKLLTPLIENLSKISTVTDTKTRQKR

[6] = tested on: PI2 virus; test: Inhibition of virus production (released virus titer) in HeLa-T4 cells, PI2; format: cell-based, parainfluenza virus type 2; settings: compared with 2F1B34
[7] = tested on: guinea pig erythrocytes; format: cell-based
[8] = molecular target: T2, SN-F, fusion glycoprotein of Sendai virus (Sendai virus (SN), UniProt P04855); test: cell-based or functional assay
T2 sequence: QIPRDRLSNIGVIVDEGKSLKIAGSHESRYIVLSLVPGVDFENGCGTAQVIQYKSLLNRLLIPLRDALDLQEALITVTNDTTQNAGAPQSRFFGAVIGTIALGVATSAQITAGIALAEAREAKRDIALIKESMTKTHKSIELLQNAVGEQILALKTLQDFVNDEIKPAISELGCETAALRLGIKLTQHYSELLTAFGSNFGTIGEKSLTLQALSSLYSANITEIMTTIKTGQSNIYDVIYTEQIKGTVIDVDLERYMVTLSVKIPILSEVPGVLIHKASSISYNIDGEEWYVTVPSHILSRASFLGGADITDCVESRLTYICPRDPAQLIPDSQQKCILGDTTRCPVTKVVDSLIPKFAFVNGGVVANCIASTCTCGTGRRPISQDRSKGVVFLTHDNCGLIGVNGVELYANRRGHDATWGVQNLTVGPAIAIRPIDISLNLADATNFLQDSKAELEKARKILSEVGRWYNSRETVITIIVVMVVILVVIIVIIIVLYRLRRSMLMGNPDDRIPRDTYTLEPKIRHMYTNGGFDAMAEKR

[9] = tested on: HeLa-T4 cells; format: cell-based
[10] = molecular target: T3, SN-F (Sendai virus, UniProt P04855); format: cell-based
T3 sequence (P04855 117-565 limits assumed): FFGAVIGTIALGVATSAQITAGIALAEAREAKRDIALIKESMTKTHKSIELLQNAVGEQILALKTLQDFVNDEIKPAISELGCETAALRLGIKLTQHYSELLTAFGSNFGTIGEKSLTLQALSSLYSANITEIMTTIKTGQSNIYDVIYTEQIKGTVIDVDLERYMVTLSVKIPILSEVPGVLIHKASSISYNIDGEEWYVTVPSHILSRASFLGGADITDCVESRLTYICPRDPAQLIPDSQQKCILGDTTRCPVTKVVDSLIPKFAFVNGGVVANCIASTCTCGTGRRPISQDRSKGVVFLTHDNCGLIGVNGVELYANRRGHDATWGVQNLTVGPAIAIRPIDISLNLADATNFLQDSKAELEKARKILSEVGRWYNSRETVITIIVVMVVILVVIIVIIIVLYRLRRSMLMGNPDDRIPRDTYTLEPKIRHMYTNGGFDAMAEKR
T3 sequence (P04855 26-116 partner limits assumed): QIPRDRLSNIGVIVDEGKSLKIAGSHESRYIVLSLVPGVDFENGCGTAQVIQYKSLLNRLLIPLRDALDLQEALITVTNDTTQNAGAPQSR

[11] = molecular target: PI2 F plus PI2 HN (viral glycoproteins of PI2 virus; HN:F) (parainfluenza type 2 (PI2) virus)
[12] = molecular target: PI2 F plus PI2 HN (viral glycoproteins of PI2 virus; HN:F) (parainfluenza type 2 (PI2) virus); remark: listed apart in the source
[13] = molecular target: PI2 F plus PI2 HN (viral glycoproteins of PI2 virus; HN:F) (parainfluenza type 2 (PI2) virus); remark: listed apart in the source
[14] = molecular target: PI3 F plus PI3 HN (viral glycoproteins of PI3 virus; HN:F) (parainfluenza type 3 (PI3) virus, UniProt P06828); test: cell-based or functional assay

Molecule: 3F1B35: 35 a.a. PI3F peptide from the beginning of the transmembrane domain to include the entire heptad repeat B (ELNKAKSDLEESKEWIRRSNQKLDSIGNWHQSSTT)
- reduction in number of plaques, PI3 [1]: 70%
- inhibition of fusion by PI3 F plus PI3 HN [2]: can inhibit
- syncytium formation / inhibition of cell fusion in PI3 infected HeLa-T4 cells (in words) [3]: no syncytia were seen
- inhibition of PI3 virus-induced cell fusion ([3]; peptide 100 μM): completely inhibited

Molecule: 2F1B21: 21 a.a. PI2F peptide from the beginning of the transmembrane domain to a predicted glycosylation site in the heptad repeat B region (KSAEDWIADSNFFANQARTAK)
- inhibition of PI2 cell fusion at high peptide concentration [4]: could only partially inhibit cell fusion
- syncytium formation / inhibition of cell fusion in PI2 infected HeLa-T4 cells (in words) ([4]; incubated with peptide, concentration not given): dramatically decreased
- inhibition of PI2 virus-induced cell fusion ([4]; peptide 200 μM or more, 24 h post infection, m.o.i. 0.1): cell fusion was reduced remarkably
- inhibition of cell fusion by vaccinia-expressed PI2 F and HN (in words) [5]: only partially inhibited cell fusion
- effect on multiple cycle growth, PI2 (in words) [6]: not as dramatic as

Molecule: 3F1B24: 24 a.a. PI3F peptide corresponding to the heptad repeat B only (ELNKAKSDLEESKEWIRRSNQKLD)
- inhibition of cell fusion by vaccinia-expressed PI3 F and HN (in words) [2]: only partially inhibited cell fusion
- inhibition of PI3 cell fusion at high peptide concentration [3]: could only partially inhibit cell fusion
- syncytium formation / inhibition of cell fusion in PI3 infected HeLa-T4 cells (in words) [3]: dramatically decreased
- inhibition of PI3 virus-induced cell fusion ([3]; peptide 200 μM or more): partially inhibited

B1: SN(59-140)d chimeric HN protein (other)
chain: MEYWKHTNHGKDAGNELETSMATHGNKITNKITYILWTIILVLLSIVFIIVLISARQGYSMKEYSMTVEALNMSSREVKESLTSLIRQEVIARAVNIQSSVQTGIPVLLNKNSRDVIQMIDKSCSRQELTQHCESRITHDVGIKPLNPDDFWRCTSGLPSLMKTPKIRLMPGPGLLAMPTTVDGCVRTPSLVINDLIYAYTSNLITRGCQDIGKSYQVLQIGIITVNSDLVPDLNPRISHTFNINDNRKSCSLALLNTDVYQLCSTPKVDERSDYASSGIEDIVLDIVNHDGSISTTRFKNNNISFDQPYAALYPSVGPGIYYKGKIIFLGYGGLEHPINENAICNTTGCPGKTQRDCNQASHSPWFSDRRMVNSIIVVDKGLNSIPKLKVWTISMRQNYWGSEGRLLLLGNKIYIYTRSTSWHSKLQLGIIDITDYSDIRIKWTWHNVLSRPGNNECPWGHSCPDGCITGVYTDAYPLNPTGSIVSSVILDSQKSRVNPVITYSTSTERVNELAIRNKTLSAGYTTTSCITHYNKGYCFHIVEINHKSLDTFQPMLFKTEIPKSCS
- HAD activity as percentage of wild type SN-HN hemadsorption [7]: comparable or higher HAD activity than that of SN-HN
- hemadsorption observed under the microscope [7]: high levels of hemadsorption
- Fusion activity (%), β-galactosidase production in the fusion dependent reporter gene activation assay [8]: 31.3 % of SN-HN wt with SN-F
- Cell surface expression (%) [9]: 61.6%
- Relative fusion promoting activity b/a [10]: 0.51

B2: peptide 2F1B34 (peptide)
peptide: Ac-DLSNQINSINKSLKSAEDWIADSNFFANQARTAK-NH2
- 50% effective concentration (EC50) of inhibition of virus infection efficiency, plaque assay, Reed-Muench method [11]: 53.8 µM
- viral titer in the culture supernatant 48 h post infection (plaque assay) (fold decrease) [12]: 15
- plaque size (peptide in the agar overlay after virus absorption, Vero cells) [13]: 1.5 mm

B3: peptide 3F1B35 (peptide)
peptide: Ac-ELNKAKSDLEESKEWIRRSNQKLDSIGNWHQSSTT-NH2
- 50% effective concentration (EC50) of inhibition of virus infection efficiency, plaque assay, Reed-Muench method [14]: 81.6 µM
- viral titer in the culture supernatant post infection [14]: 10 fold reduction

B4: SN(80-140)d chimeric HN protein (other)
chain: MEYWKHTNHGKDAGNELETSMATHGNKITNKITYILWTIILVLLSIVFIIVLINSIKSEKAHESLLQDVNNEFMSREVKESLTSLIRQEVIARAVNIQSSVQTGIPVLLNKNSRDVIQMIDKSCSRQELTQHCESRITHDVGIKPLNPDDFWRCTSGLPSLMKTPKIRLMPGPGLLAMPTTVDGCVRTPSLVINDLIYAYTSNLITRGCQDIGKSYQVLQIGIITVNSDLVPDLNPRISHTFNINDNRKSCSLALLNTDVYQLCSTPKVDERSDYASSGIEDIVLDIVNHDGSISTTRFKNNNISFDQPYAALYPSVGPGIYYKGKIIFLGYGGLEHPINENAICNTTGCPGKTQRDCNQASHSPWFSDRRMVNSIIVVDKGLNSIPKLKVWTISMRQNYWGSEGRLLLLGNKIYIYTRSTSWHSKLQLGIIDITDYSDIRIKWTWHNVLSRPGNNECPWGHSCPDGCITGVYTDAYPLNPTGSIVSSVILDSQKSRVNPVITYSTSTERVNELAIRNKTLSAGYTTTSCITHYNKGYCFHIVEINHKSLDTFQPMLFKTEIPKSCS
- HAD activity as percentage of wild type SN-HN hemadsorption [7]: 30.5%
- hemadsorption observed under the microscope [7]: lower activities
- Fusion activity (%), β-galactosidase production in the fusion dependent reporter gene activation assay [8]: 6.72 % of SN-HN wt with SN-F
- Cell surface expression (%) [9]: 72.0%
- Relative fusion promoting activity b/a [10]: 0.09
- fusion promoting activity, percentage of wild type SN-HN [10]: 6.7%
